Data published in the DeepSol protein solubility set.

Test: soluble on expression in E. coli; label from the status in PepcDB or PDB records

Sequence | soluble on expression in E. coli
MGRQIPPDPVFGDVLVAKLINRVMWDGKKTIAQKIVYGAFDIIREKTKKDPLEVFRQAVENVKPVLEVRPRRVGGATYQVPIEVQEPRRTSLALRWIVEAARAKKGRPMKEKLAEEIIAAYNNTGTAIKKKEDTHRMAEANRAFAHYRW | soluble
MGSDKIHHHHHHMNEAFLSLTPAQIRHRLHAAPELSGQETETARRVAGWLEQAGATRIVTGLGGHGVAGVFAGTLPGPRVMFRAELDGLPIDETAEIAWKSTCEHVAHSCGHDGHMAVLLGLAQRLAEQPPTHGETVLLFQPSEETGRGAREVVESSRFEEIAPDHVYALHNLPGKPLGEVSVREGAMTCASRGLIIRLNGLCAHAAHPEQGRNPALAMCRILQGLKRLPQQLPDDQGLVMVTLIHARLGEVAFGTSPGQAEVMATLRTEDDAMMRALAEASVALARAEAEEDDLGIEIDWCDVFQATRNHPAAVASIREAARSLNMPLTALPEAHRWSEDFGWLAAQGQGALLTLGAGERCLPLHNPGYDFPDDLLDTGIALFERLVRLHQSDV | not soluble
MNDPADTLRATLADLVDGLPPRQAARAVERLIANYRGDTPTDAPILRDRADVVAYAAYRMPATFAAVRSALTAFAEAVPDWVPGSHLDVGGGTGAATWAVSDTWGGTRPVTVLDWAEPALVLGQEIAASLPALREARWRRSRIGAALDIESVELVTVSYVLNELTGSDRAALVDAAAGAARAVVIVEAGTPAGYARVVEARDRLIAAGFRVAAPCPHSAACPIEAGTDWCHFAARVSRSSLHRQVKSGSLAYEDEKFSYVAATRLPVEPAASRVVRRPQIRKGQVLLDLCASDERLRRSTVTKRHGDLYKAARDAAWGDPWPPGEDLEHHHHHH | soluble
MGSDKIHHHHHHMTPITQSEINKAAWGACDTFRGVVDPSIYKDYVLTMLFLKYVSDVWKDHKASYAAHYPDSPELVAAMMERETFKLPETASFDALHGRRHEPGNGERIDKALHAIEEANGSKLRDVFQDISFNSNKLGDEEQKNDILRHLLEDFAKTALDLRPSRVGNLDIIGGAYEYLISRFAATAGKKAGEFYTPAEVSELMARLVDPQPGDDICDPTCGSASLLMKCGRLIREGGSKAYALFGQEAIGSTWALAKMNLFLHGEENHQIEWGDTIRNPKLRTSDDMLRHFDVVVANPPFSLDKWGVESAEADKFARFRRGIPPKTKGDYAFILHMIETLKPKTGRMAVVVPHGVLFRGSSEGKIRHKLIEDNLLDAVIGLPEKLFFGTGIPSAILVFRKDKADDSVLFVDASREFVAGTNQNALDMTLIEKIVATHQTRQTVEKYAYRATLAEIIENDFNLNIPRYVDTFEEEEEIDLMAVRAERMKLKGEMAELEDRMEGYLQELGY | not soluble
MAHHHHHHMMRLSRLGVTAAAAAPSSFPLLQQLRGVRYANIQETLKPIPGQTAGQISILNEICCNPDAEEERRKPVFRAEVMPDAAAAAEEDNYLHTMHKWGYDSLTLFKKTNEDPGPWWNANASTLASNWSQVGDYANAGMWSGVWRYTYGIGEYNLRPYELRGRAWGRKDPKTGAVMIRYGKRSTSKPVQRLCFPHTKEHEQHHRIKNPANKDVKEISALHGKRILRELQYHLGQGLRFYLVDGVFGSDPGTATPYRIITDTPTHAYFASMAAIRTFNYVARQEVTLVKRLSQSPIDEWGWRRPGVLIYHAPSYDFESPRIVEEFGGPRPKDMGLSHNRFIATEPYSIPMKCAMGGEPSCDALLDSTAMLCGRWGFYADEKGYLTVPGESIMSKDGRSLTLVITGDEADADALRTSPQLYGSRHHRIANGVVSRAWDVVSMPACATGAKPLPTDIVEQDLQRVQRSLPTRMGLPHTLSHRHHGRRHVSEYGFKWPHNYTEDVSTKAYAGGHLFKAPKTDKLAGHQPRPSRFLMKDVDVVVIGEGVDAAAAVVSTLKDRGMLYAEEAPLKEAMATALKAAKSVKVVPRASSKVVLGKLTHV | not soluble
MLNTKSPSPANSNYDFALRHERVKLIARALKQFGVYITRTTQAMREVASCLSLVGQSYHEVAQCVNNTNPHSRADQDCYISFNRQLVESYGANLQNAATLFSAEMMNIKNGEQFLSYNKSVHRTVMTRLHDVLKMAQRTRDLGDDVKAELKKATSCRKVVSRKEAKYIRKGRPLTESKLYVRQSERMRKHDQAYEAKLRTFDTEYESLMQRQLYVAGHTMDDFLDMNTVYLSHILKVLGCLAPNGAEAIQKMLDSGEKLSDLLGIAPEDQLGCRLRAQNVDVLNSSNVTPVKRGVGATPGKGTPAKSSCCGSSHNFTSYYQNRRQAALYVEGAPPTARALGEDSRGSSEPCQTLSETPERQLISNQTPLRATFGSAAICRAASHSYSAAEPAAPSPLQPPSFPAAVRRVDAAPVPYVKPLAIGLHASCGSPGTTTDAAKQTCPAGNAAPAAWVVKTGGRRGSVCDTTNSRTRVELSLGHAQFDDDNTAAGAPPAACLAPAPPPAQYSEERPMERPLGRSEVPAAQAAMFGLDVARSAAPFDDQLVADSCRRTSLLSLKPVALFPLDVSESSISRKVAPRTSAATTSVANPSTQQRSRRDRKKHKTTKVVAAARGVPLPGTASAPPDEDTMSRSTSTQSQEALESSIHGYHAAHYHCPPPQQLHNLKQHPQRDSAPVSLAHFQMELTGCSGDAPCQWRNDGLCSEAGGVSGRSQRLSTSYGLDSPTPTPQPFALGTHAWEDSQVRPCSSA | not soluble
MDPSSIDLGSIPGGSEQQQHEDGAAAAAGSPKEVFRSQQSLGLITQRFMSLRQRNEVLNLNEVAKELNISKRRVYDVINVLEGLGYVEKVEKNNIRWIGDNNNSEEQNALEARVEMLRQQEKLLELMIRDAQAIIELHFEDPIERPYNYVSKEDIRKTAEPNTKSIIVKSELDTSSSFEIQVTDPSTSGSHDMIVRNKNGVKSHALLFTNDPPEYGDEEDEDDVKKLSSQKRFETSEALRVTLAEMLTDPTTISSSPKHIKLEEPEEIDTEDLETFAPPEFSENKWSQKIGGGLAILWAWLALMPRPQNGNFFSAKFFKFFPETVARKTFVLPPSTSASQSNAPYLPETPGRGLFFSPFKSLIDPCILPSFSDDLTSGYINITTPSRATGAGAGASGQEDEEPVSVMDFFSD | not soluble
AKLLPKLQKQNLSDSAQQIAQERGLGNSSQRKVYLPIIRAYRVGPELIDWTDGKNLRELGIYRQTGCYIERIRRNGILAHPDGDAILQEGDEIALVGFPDSHARLDPSFRNGKEVFDRNLLDLRIVEEEIVVKSDAIAGKRLSDLNLSEFGCFLNRVVRAQIEMPMDLDIVLAKGDVLQVSGEKSRVHGLAEKIGFISIHSQMAD | not soluble
MSLKTGRFDQAQADAFAERLLSVLNDAALTLMISIGHRTGLFDVMDKLDFASSEVIAEAAGCNERYVREWLNALVVGGIVDYDAHTKAYQLPAEHASFLTRKSSPQNMAVVAQFIPVLAYVENGIVDAFKHGGGVPYEAYHRFHEVMAEESGQTILSSLTDKILPMVHGLVDKLNQGIQVLDIGCGYGRALILMAKTYPQSQFTGYDLCDETIAHAVHSAKKNKIQNIHFEKMDLSVWDEQEKYDLITSFDVIHDQAKPAQVLSNVFKALKPHGIFLMQDIKTSSDVAGNVHHPLGALIYTISCMHCMTVSLSQNGLGLGAAWGEELAEKMLVEAGFGKIEKHYLEHDIMNTYYVMRKEGHHHHHH | soluble
MSLTESESGGDTMMAAVLDVLPHGRPGDDRPQHQKEPLAYALDIDEFYIYELQLADKDADIAFGDRIDLTEFGRVTEVEFEDIPSGARSELDYAVEEVVEANEQRFVDFYNDAQPITLRLHQLNLLPGIGKKLRNTILDERKRKPFESFEDLEKRVSGLHSPKETLVERILEELQDDDLKYRLFVRREEQSSEGHHHHHH | soluble
MGSDKIHHHHHHMTDLKTTFAGLSLRNPIIISSSGLTNSAGKNKRLAEAGAGAIVLKSLFEEQIMLEADQLKDPAFYPEASDYLEEYIREHKLAEYLTLIKESKKECSIPIIASINCYSDSEWVDFAKQIQEAGADALEINILALQSDVQYTYGSFEQRHIDILRHIKQTVTIPVIMKLGDNLTNPVALIDQLYANGAAAVVLFNRFYQPDINIENMEQVSGEVFSTSADLATPLRWIGIASSVVNKIDYAASGGVANPEAVVKAILAGASAVEVCSAIYQNTNAFIGESTRFLSAWMERKGFKNIAQFKGKLNIKDVQGINTFERTQFLKYFGKKEA | not soluble
QPSPPQRPNRCTVCRKRVGLTGFMCRCGTTFCGSHRYPEVHGCTFDFKSAG | soluble
MSEVLITGLRTRAVNVPLAYPVHTAVGTVGTAPLVLIDLATSAGVVGHSYLFAYTPVALKSLKQLLDDMAAMIVNEPLAPVSLEAMLAKRFCLAGYTGLIRMAAAGIDMAAWDALGKVHETPLVKLLGANARPVQAYDSHSLDGVKLATERAVTAAELGFRAVKTRIGYPALDQDLAVVRSIRQAVGDDFGIMVDYNQSLDVPAAIKRSQALQQEGVTWIEEPTLQHDYEGHQRIQSKLNVPVQMGENWLGPEEMFKALSIGACRLAMPDAMKIGGVTGWIRASALAQQFGIPMSSHLFQEISAHLLAATPTAHWLERLDLAGSVIEPTLTFEGGNAVIPDLPGVGIIWREKEIGKYLV | soluble
MAHHHHHHMLGSGKSSGVVNEASNLKANQNLTSAIEEMNTKEYIRNRDLNDVVPTHRRQVEAMMNKGNNNNGKVGLPAYDPAAEKEKERKERGQTHIEDRNDSDDDGELEELRKRRMAQMQQHHAKVAEWRQKQHGQYREISQDEFFSIVVREKGGSDDVCVHFYHKDFETCRVMDSRLLELSRMMLSVKFVKIDAEKSPFLVERLHIKTLPCCVLFHNDVAVDRIYGFEGCIGEDGLLDKELLGERILRAVNCKQEECE | soluble
MKLATKKNGTRDGLLMVVSKDLTRCVPATEVFHPRNLAPTMQVALDNWEAVAPQLEEIYTALNNGTVAGFEEFEAHYCESPLPRAYQWADGSAYVNHVELVRKARGAEMPESFWTDPLMYQGGSDAFIGPCDNIEFASDEWGIDFEGEVAVVTGDVPMGASIAEAQESIRLIMLVNDVSLRGLIPAELAKGFGFFQSKPSSAFSPVAVTPDELGDEWYENKVHLPLVSTYNHKPFGRPNAGVDMTFDFADLIVHATKTRPLSAGAIIGSGTVSNKQGTDHGTSIEEGGVGYSCIAEVRMIETIRDGKPTTNFMSFGDSIKLEMFDVEGNTIFGAIDQQVSQYLKH | not soluble
MSLAVNNIIKRIRNIMRQDAGINGDAQRIEQMTWMIFLKVYDTQEETWEYKASRESKTYQSIIPKDLRWRNWAVDEKDGEALTGEALLSFVNEKLFPALKNLPVDANTPRAKSIVQETFADLNQYMKNGTLLRQVVNIVNEIEFDDADDRHTFGDIYEGILKDLQSAGNAGEFYTPRALTDFIVMMLDPKLGETFGDFTSGTGGFLTSALNYMGKSVRSAEDGEKLQNAVVGQEWKPLPYLLSITNLLLHDIEAPNIANCDSLGTNVTDFKETDKVDVIGMNPPYGGSTEDSVKNNFPLRYRSSETADLFIALIMYRLKAGGRCGVIIPDGFLFGTDGAKLALKENLLRKFNLHTIIRLPGSIFSPYTSIATNILFFNNEEAEGCEEGFKTKETWFYRLDMPEGYKHFSKNKPMKVEHTLPIQEWWNDRKEIVSSETGEKSRVFTAQQLLDLNCNFDQCKFPKEEEEILPPAEGHHHHHH | soluble
KGNTFLWLDDILYCERVDGLVFAYTKNKVYQIFHSLRDLEASYYRLGYVRCSKSMIVNIYKIHYFNSEPYGRIRATMENKEEIIISRKYANRIRTILQ | not soluble
